According to patent US20170190775A1 (published 2017):

T1: full length cynomolgus monkey (c)TREM-1 on cells (cynomolgus monkey)
T1 construct: also called cynoTREM-1; cTREM-1 reporter cell
T1 chain: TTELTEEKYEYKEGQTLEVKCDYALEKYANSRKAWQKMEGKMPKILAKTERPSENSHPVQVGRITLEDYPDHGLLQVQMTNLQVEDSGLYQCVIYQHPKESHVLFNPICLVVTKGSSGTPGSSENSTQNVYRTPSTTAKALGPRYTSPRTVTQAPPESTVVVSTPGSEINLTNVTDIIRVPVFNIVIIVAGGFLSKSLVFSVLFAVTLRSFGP

T2: cynomolgus TREM-1 (cTREM-1) protein (cynomolgus monkey)
T2 construct: also called cyno TREM-1
T2 chain: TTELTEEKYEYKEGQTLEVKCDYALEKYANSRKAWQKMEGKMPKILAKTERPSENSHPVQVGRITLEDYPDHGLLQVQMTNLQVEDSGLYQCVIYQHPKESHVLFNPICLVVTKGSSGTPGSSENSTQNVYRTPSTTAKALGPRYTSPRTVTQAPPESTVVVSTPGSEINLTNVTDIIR

T3: cTREM-1 construct, residues M1-R180 of SEQ ID NO: 12 with six histidine residues at the C-terminus (cynomolgus monkey)
T3 chain: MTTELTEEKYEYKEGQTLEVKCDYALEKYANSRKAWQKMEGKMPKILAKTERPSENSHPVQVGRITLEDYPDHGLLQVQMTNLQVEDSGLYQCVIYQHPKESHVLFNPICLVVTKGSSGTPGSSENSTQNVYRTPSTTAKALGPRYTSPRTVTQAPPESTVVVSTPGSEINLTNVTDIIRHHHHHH

B1: mAb 0048 (antibody, V domains shown)
VH: EVQLVESGGGLVQPKGSLKLSCAASGFTFNTYAMHWVRQAPGKGLEWVARIRTKSNNYATYYVDSVKDRITISRDDSQSMLYLQMNNLKTEDTAMYYCVRDMGIRRQFAYWGQGTLVTVSA
VL: DIVLTQSPASLAVSLGQRATISCRASESVDSFGISFMHWYQQSPGQPPKLLIYRASNLESGIPARFSGSGSRTDFTLTINPVEADDVATYYCQQSNEDPYTFGGGTKLEIKR
notes: also called 14F11A1B1; 14F11
B2: mAb 0059 (antibody, IgG1, V domains shown)
VH: EVQLVESGGGLVQPKGSLKLSCGASDFTFNTYAMHWVRQAPGMALEWVARIRTKSSNYATYYADSVKDRFTISRDDSQNMLYLQMNNLKTEDTAMYYCVRDMGQRRQFAYWGQGTLVTVSA
VL: DIVLTQSPASLAVSLGQRATISCRASESVDTFDYSFLHWYQQKPGQPPKLLIYRASNLESGIPARFSGSGSRTDFTLTINPVEADDVATYYCQQSNEDPYTFGGGTKLEIER
notes: Recombinant; also called 14F113/14F69; 14F113A1B1C1 (recombinant)
B3: mAb 0068 (antibody, V domains shown)
VH: EVQLVESGGGLVQPKGSLKLSCAASGFTFNTYAMHWVRQAPGKGLEWVARIRTKSNNYATYYVDSVKDRITISRDDSQSMLYLQMNNLKTEDTAMYYCVRDMGIRRQFAYWGQGTLVTVSA
VL: DIVLTQSPASLAVSLGQRATISCRASESVDSFGISFMHWYQQSPGQPPKLLIYRASNLESGIPARFSGSGSRTDFTLTINPVEADDVATYYCQQSNEDPYTFGGGTKLEIKR
notes: Recombinant; also called 14F128/14F11 (recombinant)
B4: mAb 0054 (antibody, V domains shown)
VH: EVQLVESGGGLVQPKGSLKLSCAASGFTFNTYAMHWVRQAPGKGLEWVARIRTKSNNYATYYVDSVKDRITISRDDSQSMLYLQMNNLKTEDTAMYYCVRDMGIRRQFAYWGQGTLVTVSA
VL: DIVLTQSPASLAVSLGQRATISCRASESVDSFGISFMHWYQQSPGQPPKLLIYRASNLESGIPARFSGSGSRTDFTLTINPVEADDVATYYCQQSNEDPYTFGGGTKLEIKR
notes: Hybridoma antibody 14F128A1; also called 14F128A1; 14F128
B5: mAb 0067 (antibody, V domains shown)
VH: EVQLVESGGGLVQPKGSLKLSCAASGFTFNTYAMHWVRQAPGKGLEWVARIRTKSNNYATYYVDSVKDRITISRDDSQSMLYLQMNNLKTEDTAMYYCVRDMGIRRQFAYWGQGTLVTVSA
VL: DIVLTQSPASLAVSLGQRATISCRASESVDSFGISFMHWYQQSPGQPPKLLIYRASNLESGIPARFSGSGSRTDFTLTINPVEADDVATYYCQQSNEDPYTFGGGTKLEIKR
notes: also called 14F11A1B1 (recombinant)
B6: mAb 0044 (antibody, IgG2a, V domains shown)
VH: EVQLEESGGGLVQPKGSLKLSCGASDFTFNTYAMHWVRQAPGMALEWVARIRTKSSNYATYYADSVKDRFTISRDDSQNMLYLQMNNLKTEDTAMYYCVRDMGQRRQFAYWGQGTLVTVSA
VL: DIVLTQSPASLAVSLGQRATISCRASESVDTFDYSFLHWYQQKPGQPPKLLIYRASNLESGIPARFSGSGSRTDFTLTINPVEADDVATYYCQQSNEDPYTFGGGTKLEIER
notes: Hybridoma antibody; also called 14F69A1; 14F69
B7: mAb 0122 (antibody, human IgG4 S228P, kappa, V domains shown)
VH: EVQLVESGGGLVQPGGSLKLSCAASGFTFSTYAMHWVRQASGKGLEWVGRIRTKSSNYATYYAASVKGRFTISRDDSKNTAYLQMNSLKTEDTAVYYCTRDMGQRRQFAYWGQGTLVTVSS
VL: DIVLTQSPDSLAVSLGERATINCRASESVDTFDYSFLHWYQQKPGQPPKLLIYRASNLESGVPDRFSGSGSGTDFTLTISSLQAEDVAVYYCQQSNEDPYTFGQGTKLEIKR
notes: Second humanised TREM-1 antibody; also called 14F113/14F69 hz variant LC M4L
B8: mAb 0124 (antibody, V domains shown)
VH: EVQLVESGGGLVQPGGSLKLSCAASGFTFSTYAMHWVRQASGKGLEWVGRIRTKSSNYATYYAASVKGRFTISRDDSKNTAYLQMNSLKTEDTAVYYCTRDMGQRRQFAYWGQGTLVTVSS
VL: DIVMTQSPDSLAVSLGERATINCRASESVDTFDYSFLHWYQQKPGQPPKLLIYRASNLESGVPDRFSGSGSRTDFTLTISSLQAEDVAVYYCQQSNEDPYTFGQGTKLEIK
notes: Recombinant; LC G68R (Kabat) in CDR grafted 14F113; also called 14F113/14F69 hz variant LC G68R; 14F113 hz variant LC G68R
B9: mAb 0170 (antibody, human IgG4 S228P, kappa, V domains shown)
VH: EVQLVESGGGLVQPGGSLKLSCAASGFTFSTYAMHWVRQASGKGLEWVGRIRTKSSNYATYYAASVKGRFTISRDDSKNTAYLQMNSLKTEDTAVYYCTRDMGIRRQFAYWGQGTLVTVSS
VL: DIVLTQSPDSLAVSLGERATINCRASESVDTFDYSFLHWYQQKPGQPPKLLIYRASNLESGVPDRFSGSGSGTDFTLTISSLQAEDVAVYYCQQSNEDPYTFGQGTKLEIKR
notes: Final humanised antibody from hybridoma 14F113 with LC M4L back-mutation and HC CDR3 Q98I (Kabat); also called 14F113/14F69 hz variant LC Q98I

Columns and labels:
[1] = biological target: T1, full length cynomolgus monkey (c)TREM-1 …; assay: binding to cynomolgus monkey PBMCs, FIG. 6A
[2] = biological target: T2, cynomolgus TREM-1 (cTREM-1) protein; assay: SPR, mAb captured by anti-Fc, cTREM-1 as analyte
Procedure: Binding studies were performed on a ProteOn Analyzer (BioRad) that measures molecular interactions in real time through surface plasmon resonance. Experiments were run at 25° C. and the samples were stored at 15° C. in the sample compartment. The signal (RU, response units) reported by the ProteOn is directly correlated to the mass on the individual sensor chip surfaces in six parallel flow cells. Anti-human Fc monoclonal or anti-murine Fc polyclonal antibody from Biacore human or mouse Fc capture kits were immobilized in horizontal direction onto flow cells of a GLM sensor chip according to the manufacturer's instructions. The final immobilization level of capture antibody was approximately 2600-6000 RU in different experiments. […] Binding of hTREM-1 or cTREM-1 proteins was conducted by injecting analyte (antigen) over all flow cells in horizontal direction to allow for comparative analyses of binding to different captured anti-TREM-1 antibodies relative to binding to the reference interspot. hTREM-1 or cTREM-1 proteins was diluted serially 1:3 to 1.2-100 nM or into running buffer, injected at 100 μl/min for 250 s and allowed to dissociate for 600s. The GLM surface was regenerated after each injection cycle of analyte via two 18 s injections of 10 mM Glycine, pH 1.7 and 50 mM NaOH at 100 μl/min. This regeneration step removed the anti-TREM-1 antibody and any bound TREM-1 protein from the immobilized capture antibody surface, and allowed for the subsequent binding of the next interaction sample pair.

[3] = biological target: T1, full length cynomolgus monkey (c)TREM-1 …; assay: binding to cynomolgus monkey PBMCs, FIG. 6B
[4] = biological target: T3, cTREM-1 construct, residues M1-R180 of …; assay: HX-MS
Procedure: Non-deuterated controls were prepared by diluting into protiated hepes buffer. The hydrogen exchange experiments were performed on a waters HDX nanoAcquity ultra-high performance liquid chromatography (UPLC) system (Waters Corporation, Milford, Mass., USA) which included the HD-x PAL auto sampler (LEAP Technologies Inc., Carrboro, N.C., USA) for automated sample preparation. The LC tubing, pre- and analytical columns and switching valves were located in a chamber cooled to 0.3° C. The trypsin digestion column was stored at 15° C. Hydrogen exchange reactions were performed at 20° C. Mass analysis was performed online using a Waters SYNAPT G2 HDMS mass spectrometer.
The mass spectrometer was operated in positive ion mode with ion mobility separation enabled. […] Deuterated samples were analysed using the 6 V low energy trap collision offset only.
The MS^E-data was analysed using Waters ProteinLynx Global Server 2.5 and peptides of hTREM-1 were identified that covered 80% of the protein sequence (Table 3) and peptides of cTREM-1 were identified that covered 100% of the protein sequence (Table 4). The HX-MS data files were analysed using Waters DynamX 1.0 that automatically applies lock-mass correction and determines the degree of deuterium incorporation in each peptide. […]

[5] = biological target: T2, cynomolgus TREM-1 (cTREM-1) protein; assay: SPR, mAb captured by anti-Fc, cTREM-1 as analyte (Example 11)
Procedure: Binding studies were performed on a ProteOn Analyzer (BioRad) that measures molecular interactions in real time through surface plasmon resonance. Experiments were run at 25° C. and the samples were stored at 15° C. in the sample compartment. The signal (RU, response units) reported by the ProteOn is directly correlated to the mass on the individual sensor chip surfaces in six parallel flow cells.
Anti-human Fc monoclonal or anti-murine Fc polyclonal antibody from Biacore human or mouse Fc capture kits were immobilized in horizontal direction onto flow cells of a GLM sensor chip according to the manufacturer's instructions. The final immobilization level of capture antibody was approximately 2600-6000 RU in different experiments. […] This regeneration step removed the anti-TREM-1 antibody and any bound TREM-1 protein from the immobilized capture antibody surface, and allowed for the subsequent binding of the next interaction sample pair.

Binder | Kd [2] | further results
B1 | 1.2 nM | binding result [1]: binds
B2 | 0.67 nM | 
B3 | 12 nM | 
B4 |  | binding result [1]: binds
B5 | 4.7 nM | 
B6 |  | binding result [3]: binds
B7 | 0.97 nM | 
B8 | 1.1 nM | 
B9 | 3.6 nM | binding result [4]: binds; Kd [5]: 3 nM
